Results published in article PMC9482650, “Quantitative fragmentomics allow affinity mapping of interactomes” (Nature Communications, 2022).

How the values were obtained:
Test in all cases: holdup assay
Conditions in all cases: plain residues with an end cap or a label only (N-terminal biotin on a linker: (peg)3)
[1] = biological target: T1, LNX2_1, Q8N448
T1 sequence (Q8N448 228-328, limits assumed, looked up): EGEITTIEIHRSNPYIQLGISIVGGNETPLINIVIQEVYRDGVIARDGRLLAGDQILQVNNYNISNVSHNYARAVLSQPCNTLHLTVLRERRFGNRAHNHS

[2] = biological target: T2, MPDZ_13, O75970
T2 sequence (O75970 1982-2070, limits assumed, looked up): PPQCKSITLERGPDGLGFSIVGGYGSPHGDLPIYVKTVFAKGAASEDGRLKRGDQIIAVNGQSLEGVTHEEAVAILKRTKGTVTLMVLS

[3] = biological target: LMO7, Q8WWI1
LMO7, Q8WWI1, sequence (Q8WWI1 1037-1138): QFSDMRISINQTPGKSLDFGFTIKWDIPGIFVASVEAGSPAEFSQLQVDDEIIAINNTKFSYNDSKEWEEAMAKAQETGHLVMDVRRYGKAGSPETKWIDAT

[4] = biological target: T3, PDZRN3_2, Q9UPQ7
T3 sequence (Q9UPQ7 414-513, limits assumed, looked up): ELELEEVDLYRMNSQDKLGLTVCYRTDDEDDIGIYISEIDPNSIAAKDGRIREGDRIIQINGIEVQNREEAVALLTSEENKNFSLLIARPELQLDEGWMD

[5] = biological target: T4, PREX2_2, Q70Z35
T4 sequence (Q70Z35 672-764, limits assumed, looked up): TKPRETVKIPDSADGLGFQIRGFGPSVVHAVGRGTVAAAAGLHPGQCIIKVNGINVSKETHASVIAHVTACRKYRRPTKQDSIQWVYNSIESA

[6] = biological target: T5, GRIP1_1, Q9Y3R0
T5 sequence (Q9Y3R0 48-146, limits assumed, looked up): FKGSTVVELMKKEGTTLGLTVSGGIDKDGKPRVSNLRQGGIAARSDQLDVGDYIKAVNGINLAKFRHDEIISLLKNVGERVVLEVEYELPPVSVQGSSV

[7] = biological target: MAGIX, Q9H6Y5
MAGIX, Q9H6Y5, sequence (Q9H6Y5 118-211): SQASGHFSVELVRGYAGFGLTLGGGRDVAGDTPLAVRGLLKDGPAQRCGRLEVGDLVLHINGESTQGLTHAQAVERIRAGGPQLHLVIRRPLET

[8] = biological target: T6, CNKSR1, Q969H4
T6 sequence (Q969H4 191-295, limits assumed, looked up): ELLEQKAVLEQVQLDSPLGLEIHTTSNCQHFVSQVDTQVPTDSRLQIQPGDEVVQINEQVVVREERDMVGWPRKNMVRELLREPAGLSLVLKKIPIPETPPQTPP

[9] = biological target: T7, PDZD8, Q8NEN9
T7 sequence (Q8NEN9 361-459, limits assumed, looked up): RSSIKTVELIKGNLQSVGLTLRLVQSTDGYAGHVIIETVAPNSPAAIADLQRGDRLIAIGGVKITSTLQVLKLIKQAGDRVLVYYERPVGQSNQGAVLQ

[10] = biological target: RIMS2, Q9UQ26
RIMS2, Q9UQ26, sequence (Q9UQ26 637-758): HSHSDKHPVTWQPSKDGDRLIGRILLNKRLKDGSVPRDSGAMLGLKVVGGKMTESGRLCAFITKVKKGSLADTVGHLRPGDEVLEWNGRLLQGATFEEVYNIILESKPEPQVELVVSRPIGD

[11] = biological target: TJP1_1, Q07157
TJP1_1, Q07157, sequence (Q07157 18-120): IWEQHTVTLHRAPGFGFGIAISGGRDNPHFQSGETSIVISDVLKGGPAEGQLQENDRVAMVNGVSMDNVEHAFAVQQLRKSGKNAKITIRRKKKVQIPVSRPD

[12] = biological target: PDZRN4_2, Q6ZMN7
PDZRN4_2, Q6ZMN7, sequence (Q6ZMN7 389-498): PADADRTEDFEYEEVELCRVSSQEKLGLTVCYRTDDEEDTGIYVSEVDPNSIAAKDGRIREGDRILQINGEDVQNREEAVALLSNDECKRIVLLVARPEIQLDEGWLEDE

[13] = biological target: T8, SHANK3, Q9BYB0
T8 sequence (Q9BYB0 641-750, limits assumed, looked up): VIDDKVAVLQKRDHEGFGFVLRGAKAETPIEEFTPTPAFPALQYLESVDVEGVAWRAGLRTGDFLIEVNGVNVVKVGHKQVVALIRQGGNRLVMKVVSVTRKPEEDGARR

[14] = biological target: IL16_2, Q14005
IL16_2, Q14005, sequence (Q14005 350-450): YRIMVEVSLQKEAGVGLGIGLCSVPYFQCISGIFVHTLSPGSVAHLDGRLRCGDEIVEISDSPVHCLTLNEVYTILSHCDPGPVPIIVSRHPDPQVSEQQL

[15] = biological target: T9, SNTB2, Q13425
T9 sequence (Q13425 110-208, limits assumed, looked up): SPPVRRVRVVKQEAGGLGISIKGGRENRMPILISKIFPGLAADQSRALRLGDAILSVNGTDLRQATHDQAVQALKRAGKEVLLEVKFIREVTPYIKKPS

[16] = biological target: T10, MPDZ_2, O75970
T10 sequence (O75970 252-347, limits assumed, looked up): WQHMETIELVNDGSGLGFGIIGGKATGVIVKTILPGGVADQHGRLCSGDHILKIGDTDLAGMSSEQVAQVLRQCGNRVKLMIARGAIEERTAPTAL

[17] = biological target: T11, PDLIM3, Q53GG5
T11 sequence (Q53GG5 1-94, limits assumed, looked up): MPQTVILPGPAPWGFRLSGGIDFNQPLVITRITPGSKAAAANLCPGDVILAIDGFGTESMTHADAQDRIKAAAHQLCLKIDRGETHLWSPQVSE

[18] = biological target: T12, SHROOM2, Q13796
T12 sequence (Q13796 21-118, limits assumed, looked up): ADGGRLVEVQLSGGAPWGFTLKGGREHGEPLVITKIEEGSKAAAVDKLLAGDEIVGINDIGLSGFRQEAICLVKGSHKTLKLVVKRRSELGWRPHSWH

[19] = biological target: T13, PTPN4, P29074
T13 sequence (P29074 512-599, limits assumed, looked up): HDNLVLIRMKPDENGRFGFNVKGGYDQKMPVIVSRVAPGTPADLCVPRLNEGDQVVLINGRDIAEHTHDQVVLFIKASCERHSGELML

[20] = biological target: GIPC3, Q8TF64
GIPC3, Q8TF64, sequence (Q8TF64 107-202): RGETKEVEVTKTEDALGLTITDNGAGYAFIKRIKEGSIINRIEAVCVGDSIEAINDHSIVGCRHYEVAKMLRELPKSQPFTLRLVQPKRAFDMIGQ

[21] = biological target: T14, USH1C_3, Q9Y6N9
T14 sequence (Q9Y6N9 447-547, limits assumed, looked up): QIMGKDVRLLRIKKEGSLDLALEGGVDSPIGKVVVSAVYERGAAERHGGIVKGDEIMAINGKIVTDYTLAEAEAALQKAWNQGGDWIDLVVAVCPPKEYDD

[22] = biological target: T15, SHROOM3, Q8TF72
T15 sequence (Q8TF72 20-120, limits assumed, looked up): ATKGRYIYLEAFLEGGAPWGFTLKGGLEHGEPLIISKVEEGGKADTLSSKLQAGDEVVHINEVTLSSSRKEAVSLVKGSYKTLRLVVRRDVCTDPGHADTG

B1: SARS-CoV-E, P59637 (peptide)
chain: NLNSSEGVPDLLV
pKd [1]: below the threshold | pKd [2]: below the threshold | pKd [3]: below the threshold | pKd [4]: below the threshold | pKd [5]: below the threshold | pKd [6]: below the threshold | pKd [7]: below the threshold | pKd [8]: below the threshold | pKd [9]: below the threshold | pKd [10]: below the threshold | pKd [11]: below the threshold | pKd [12]: 4.05 | pKd [13]: below the threshold | pKd [14]: below the threshold | pKd [15]: below the threshold | pKd [16]: below the threshold | pKd [17]: below the threshold | pKd [18]: below the threshold | pKd [19]: below the threshold | pKd [20]: below the threshold | pKd [21]: below the threshold | pKd [22]: below the threshold
